In patent US20090305953A1:
Several values for one entry are separate records, joined by “and”; a condition that tells them apart may be missing. Equal values may be shown once.

Columns and labels:
[1] = molecular target: human α-glycoprotein (human) (UniProt P02763); experiment: calculated from ITC Ka; 10 µM antibiotic, 1.5×10^-5 M α-glycoprotein assumed
[2] = molecular target: human α-glycoprotein (human) (UniProt P02763); experiment: calculated from ITC Ka; 1 µM antibiotic, 1.5×10^-5 M α-glycoprotein assumed
[3] = molecular target: human serum albumin (human) (UniProt P02768); experiment: calculated from ITC Ka; 165 µM antibiotic, 6×10^-4 M human serum albumin assumed
[4] = molecular target: human α-glycoprotein (human) (UniProt P02763); experiment: calculated from ITC Ka; 165 µM antibiotic, 1.5×10^-5 M α-glycoprotein assumed
[5] = molecular target: N,N′-diacetyl-Lys-D-Ala-D-Ala; experiment: ITC, tri-peptide injected into dalbavancin, 25 °C, apparent value in the presence of 13.6 µM HSA
[6] = molecular target: human α-glycoprotein (human) (UniProt P02763); experiment: calculated from ITC Ka; 100 µM antibiotic, 1.5×10^-5 M α-glycoprotein assumed
[7] = molecular target: human serum albumin (human) (UniProt P02768); experiment: calculated from ITC Ka; 100 µM antibiotic, 6×10^-4 M human serum albumin assumed
[8] = molecular target: human serum albumin (human) (UniProt P02768); experiment: calculated from ITC Ka; 250 µM antibiotic, 6×10^-4 M human serum albumin assumed
[9] = molecular target: dog albumin (dog) (UniProt P49822); experiment: ITC, single-site model
[10] = molecular target: rat albumin (rat) (UniProt P02770); experiment: ITC, single-site model
[11] = molecular target: bovine albumin (bovine) (UniProt P02769); experiment: ITC, single-site model
[12] = molecular target: human α-glycoprotein (human) (UniProt P02763); experiment: ITC, single-site model
[13] = molecular target: human α-glycoprotein (human) (UniProt P02763); experiment: calculated from ITC Ka; 250 µM antibiotic, 1.5×10^-5 M α-glycoprotein assumed
[14] = molecular target: human α-glycoprotein (human) (UniProt P02763); experiment: calculated from ITC Ka; 500 µM antibiotic, 1.5×10^-5 M α-glycoprotein assumed
[15] = molecular target: human serum albumin (human) (UniProt P02768); experiment: calculated from ITC Ka; 500 µM antibiotic, 6×10^-4 M human serum albumin assumed
[16] = molecular target: human serum albumin (human) (UniProt P02768); experiment: calculated from ITC Ka; 1 µM antibiotic, 6×10^-4 M human serum albumin assumed
[17] = molecular target: N,N′-diacetyl-Lys-D-Ala-D-Ala; experiment: ITC, no HSA
[18] = molecular target: N,N′-diacetyl-Lys-D-Ala-D-Ala; experiment: ITC, tri-peptide injected into dalbavancin, 25 °C, apparent value in the presence of 80.7 µM HSA
[19] = molecular target: human serum albumin (human) (UniProt P02768); experiment: calculated from ITC Ka; 10 µM antibiotic, 6×10^-4 M human serum albumin assumed
[20] = molecular target: N,N′-diacetyl-Lys-D-Ala-D-Ala; experiment: ITC, tri-peptide injected into dalbavancin, 25 °C, apparent value in the presence of 34.2 µM HSA
[21] = molecular target: N,N′-diacetyl-Lys-D-Ala-D-Ala; experiment: ITC, tri-peptide injected into dalbavancin, 10 °C, no HSA

human α-glycoprotein (human), sequence (P02763 19-201): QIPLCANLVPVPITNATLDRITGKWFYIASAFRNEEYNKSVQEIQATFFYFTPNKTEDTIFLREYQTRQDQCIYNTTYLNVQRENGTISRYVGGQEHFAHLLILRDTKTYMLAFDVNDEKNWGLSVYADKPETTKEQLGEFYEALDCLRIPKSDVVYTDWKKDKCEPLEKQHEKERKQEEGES
rat albumin (rat), sequence (P02770 25-608 limits assumed): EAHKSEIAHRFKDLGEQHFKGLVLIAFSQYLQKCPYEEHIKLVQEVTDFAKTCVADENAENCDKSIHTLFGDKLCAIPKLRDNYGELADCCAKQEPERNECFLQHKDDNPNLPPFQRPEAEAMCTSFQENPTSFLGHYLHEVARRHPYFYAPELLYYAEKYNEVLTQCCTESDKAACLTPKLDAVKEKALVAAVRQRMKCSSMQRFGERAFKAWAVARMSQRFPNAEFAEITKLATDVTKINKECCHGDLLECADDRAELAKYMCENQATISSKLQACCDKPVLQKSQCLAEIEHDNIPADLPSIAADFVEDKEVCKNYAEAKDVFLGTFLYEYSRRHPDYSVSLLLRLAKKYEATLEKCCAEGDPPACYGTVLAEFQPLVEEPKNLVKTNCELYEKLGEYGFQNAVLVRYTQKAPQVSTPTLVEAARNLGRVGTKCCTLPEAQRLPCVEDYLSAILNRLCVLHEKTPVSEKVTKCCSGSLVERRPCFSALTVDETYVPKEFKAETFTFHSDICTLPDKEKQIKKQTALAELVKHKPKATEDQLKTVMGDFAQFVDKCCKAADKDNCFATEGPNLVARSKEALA
bovine albumin (bovine), sequence (P02769 25-607 limits assumed): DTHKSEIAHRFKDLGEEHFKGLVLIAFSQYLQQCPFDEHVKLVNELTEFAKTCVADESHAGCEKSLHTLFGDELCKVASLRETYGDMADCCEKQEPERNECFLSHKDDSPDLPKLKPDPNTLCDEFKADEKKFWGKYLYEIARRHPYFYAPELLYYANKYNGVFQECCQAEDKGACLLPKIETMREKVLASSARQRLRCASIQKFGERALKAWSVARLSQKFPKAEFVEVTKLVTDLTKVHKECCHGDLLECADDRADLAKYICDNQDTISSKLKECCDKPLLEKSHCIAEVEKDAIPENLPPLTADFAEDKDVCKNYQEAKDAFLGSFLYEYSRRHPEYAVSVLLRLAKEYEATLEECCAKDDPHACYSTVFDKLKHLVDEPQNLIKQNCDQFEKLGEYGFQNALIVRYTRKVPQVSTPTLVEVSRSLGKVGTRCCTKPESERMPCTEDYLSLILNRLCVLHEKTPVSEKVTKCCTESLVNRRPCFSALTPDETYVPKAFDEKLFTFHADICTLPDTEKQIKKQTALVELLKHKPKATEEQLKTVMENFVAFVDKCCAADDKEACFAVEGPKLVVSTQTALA
dog albumin (dog), sequence (P49822 25-608 limits assumed): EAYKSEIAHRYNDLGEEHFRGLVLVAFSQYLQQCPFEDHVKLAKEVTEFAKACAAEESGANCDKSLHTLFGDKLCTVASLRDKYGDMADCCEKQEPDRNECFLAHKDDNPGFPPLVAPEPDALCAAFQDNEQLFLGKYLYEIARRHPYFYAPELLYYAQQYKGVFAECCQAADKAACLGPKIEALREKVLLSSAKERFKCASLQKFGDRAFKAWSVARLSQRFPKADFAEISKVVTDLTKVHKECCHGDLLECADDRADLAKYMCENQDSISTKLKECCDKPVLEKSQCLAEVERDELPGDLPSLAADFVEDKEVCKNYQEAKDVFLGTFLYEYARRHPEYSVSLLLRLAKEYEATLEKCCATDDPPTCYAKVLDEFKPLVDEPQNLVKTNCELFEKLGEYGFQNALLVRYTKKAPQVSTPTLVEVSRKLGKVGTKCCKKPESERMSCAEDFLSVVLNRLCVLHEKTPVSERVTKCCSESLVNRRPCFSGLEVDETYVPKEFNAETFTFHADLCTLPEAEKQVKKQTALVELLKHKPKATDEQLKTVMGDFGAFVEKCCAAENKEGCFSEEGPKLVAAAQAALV

## dalbavancin (peptide)
[1]
  calculated percent binding: 68.2%
[2]
  calculated percent binding: 73%
[3]
  calculated percent binding: 98.6%
[4]
  calculated percent binding: 16.9%
[5]
  N: 0.35 and 0.37
[6]
  calculated percent binding: 26.2%
[7]
  calculated percent binding: 98.7%
[8]
  calculated percent binding: 98.5%
[9]
  N (binding stoichiometry, protein per dalbavancin): < 1
[10]
  N (binding stoichiometry, protein per dalbavancin): < 1
[11]
  N (binding stoichiometry, protein per dalbavancin): < 1
[12]
  N (binding stoichiometry, protein per dalbavancin): < 1
[13]
  calculated percent binding: 11.4%
[14]
  calculated percent binding: 5.9%
[15]
  calculated percent binding: 98%
[16]
  calculated percent binding: 98.8%
[17]
  N: 0.5
[18]
  N: 0.83
[19]
  calculated percent binding: 98.8%
[20]
  N: 0.68
[21]
  N: 0.59 and 0.56

## teicoplanin (peptide)
[1]
  calculated percent binding: 9.1%
[2]
  calculated percent binding: 9.6%
[6]
  calculated percent binding: 6%
[7]
  calculated percent binding: 98%
[16]
  calculated percent binding: 98.3%
[19]
  calculated percent binding: 98.3%
